Reference: patent publication US20040234982A1 (published 2004)

Tests used:
[1] = tested on: unknown -112 site binding nuclear protein; assay: EMSA
T/EBP/NKX2.1 (TTF1) = target: T1, T/EBP/NKX2.1 (TTF1) (UniProt P23441); assay: cell_activity; details: luciferase
T1 sequence: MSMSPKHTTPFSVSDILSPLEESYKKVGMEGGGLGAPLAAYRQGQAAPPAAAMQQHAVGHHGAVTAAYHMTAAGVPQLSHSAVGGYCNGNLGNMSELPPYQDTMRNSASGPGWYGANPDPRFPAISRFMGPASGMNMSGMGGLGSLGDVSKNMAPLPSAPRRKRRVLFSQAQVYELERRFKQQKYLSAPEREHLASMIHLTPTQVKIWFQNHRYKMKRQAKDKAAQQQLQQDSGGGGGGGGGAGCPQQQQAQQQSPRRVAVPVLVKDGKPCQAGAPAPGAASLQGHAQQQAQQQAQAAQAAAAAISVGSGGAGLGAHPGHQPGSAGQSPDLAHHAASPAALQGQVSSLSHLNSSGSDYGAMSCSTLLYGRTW

[2] = target: the molecule itself; assay: anti-c-myc immunoblot of COS-1 cell lysate and conditioned medium, non-reducing vs reducing SDS-PAGE; homodimer
Method: Three forms of cDNAs encoding type A, B and C proteins were amplified by PCR and inserted into EcoRI and XhoI site of pcDNA3.1/Myc-His(+) A vector (Invitrogen). Transient transfection into COS-1 cells was performed using Effectene transfection reagent (Qiagen). After 2 days, cells and conditioned media were collected, separated on 13% SDS-polyacrylamide gels under reducing and non-reducing conditions, and electrophoretically transferred to nitrocellulose membrane (Schleicher & Schuell). The filter was incubated in PBS containing 5% skim milk, and then for 1 h with 250-fold diluted c-myc 9E10 […] antibody (Santa Cruz Biotechnology, Santa Cruz, Calif.). The filter was washed in PBS containing 0.1% Tween 20, incubated with horseradish peroxidase (HRP)-conjugated anti-rabbit IgG (Amersham Pharmacia Biotech), and then washed with the same buffer. Protein bands were detected using ECL Western blotting detection reagent (Amersham Pharmacia Biotech).
The polypeptides of uteroglobin/CCSP family members form a homodimer or heterodimer (Mukherjee et al., Cell Mol Life Sci 55:771-787, 1999). […] In contrast, no band corresponding to polypeptide C was ever detected in either the cell lysate or the medium under any conditions examined, despite the effort to keep the procedures of transient expression and immunoblot analyses consistent for all three polypeptides. […]

-112A oligonucleotide
binding signal (fold affinity vs -112G) ([1]; binds at same mobility, about 2-fold lower affinity): 0.5

-112G oligonucleotide
binding signal (fold affinity vs -112A) ([1]; competition with unlabeled oligonucleotides): 2

pGL3-190 mouse UGRP1 promoter reporter
activity (fold activation) (T/EBP/NKX2.1 (TTF1); NCI-H441 cells): 4

pGL3-147 mouse UGRP1 promoter reporter
activity (fold activation) (T/EBP/NKX2.1 (TTF1); HeLa cells): 5

B1: Mouse UGRP1 type A polypeptide tagged with a c-myc epitope at the carboxyl-terminus, expressed in COS-1 cells (other, not shown: small tags and cut ends)
chain: LLINRLPVVDKLPVPLDDIIPSFDPLKMLLKTLGISVEHLVTGLKKCVDELGPEASEAVKKLLEALSHLV
notes: Type A is 91 amino acids; The protein was found as a homodimer under non-reducing conditions; also called polypeptide A
binding result [2]: binds
